From patent US20220387579A1

Biological target: RSV F A strain Viral Protein (Respiratory Syncytial Virus A strain)
Assay: SPR

Palivizumab gave a Kd of 260 pM.
